In the Human Domainome abundance scans (Beltran et al. 2025):
± gives the uncertainty stated by the source.

B1: Homeobox protein SIX3, residues 212 to 262; numbered along this chain, O95343 (parent)
chain: CFKERTRSLLREWYLQDPYPNPSKKRELAQATGLTPTQVGNWFKNRRQRDR

Variants of: B1
Test: abundance fitness (aPCA) (normalised: wild type 0, dead -1); higher = more abundant; growth selection in yeast, the domain comes from the species named
Conditions: Homo sapiens

Q: For CFKERTRSLLREWYLQDPYPNPSTKRELAQATGLTPTQVGNWFKNRRQRDR, which abundance fitness is on record?
A: Its abundance fitness is -0.097 ± 0.092.

Q: With CFKERTRSLLREWYLQDPYPNPSAKRELAQATGLTPTQVGNWFKNRRQRDR as the variant, how does the abundance fitness read?
A: The abundance fitness was 0.11 ± 0.074.

Q: For CFKERTRSLLREWYLQDPYPNPSIKRELAQATGLTPTQVGNWFKNRRQRDR, which abundance fitness is on record?
A: Its abundance fitness is -0.072 ± 0.09.

Q: With CFKERTRSLLREWYLQDPYPNPSMKRELAQATGLTPTQVGNWFKNRRQRDR as the variant, how does the abundance fitness read?
A: The abundance fitness was -0.246 ± 0.15.

Q: Which abundance fitness does the source give for CFKERTRSLLREWYLQDPYPNPSGKRELAQATGLTPTQVGNWFKNRRQRDR here?
A: Its abundance fitness is -0.417 ± 0.068.

Q: With CFKERTRSLLREWYLQDPYPNPSHKRELAQATGLTPTQVGNWFKNRRQRDR as the variant, how does the abundance fitness read?
A: Its abundance fitness is -0.219 ± 0.096.

Q: For CFKERTRSLLREWYLQDPYPNPSWKRELAQATGLTPTQVGNWFKNRRQRDR, which abundance fitness is on record?
A: The abundance fitness was -0.896 ± 0.13.

Q: For CFKERTRSLLREWYLQDPYPNPSYKRELAQATGLTPTQVGNWFKNRRQRDR, which abundance fitness is on record?
A: Its abundance fitness is -0.709 ± 0.2.

Q: For CFKERTRSLLREWYLQDPYPNPSPKRELAQATGLTPTQVGNWFKNRRQRDR, which abundance fitness is on record?
A: The abundance fitness was -0.924 ± 0.14.

Q: For CFKERTRSLLREWYLQDPYPNPSFKRELAQATGLTPTQVGNWFKNRRQRDR, which abundance fitness is on record?
A: Its abundance fitness is -0.672 ± 0.094.

Q: With CFKERTRSLLREWYLQDPYPNPSSKRELAQATGLTPTQVGNWFKNRRQRDR as the variant, how does the abundance fitness read?
A: Its abundance fitness is -0.193 ± 0.06.

Q: For CFKERTRSLLREWYLQDPYPNPSRKRELAQATGLTPTQVGNWFKNRRQRDR, which abundance fitness is on record?
A: Its abundance fitness is -0.137 ± 0.047.

Q: With CFKERTRSLLREWYLQDPYPNPSCKRELAQATGLTPTQVGNWFKNRRQRDR as the variant, how does the abundance fitness read?
A: Its abundance fitness is -0.399 ± 0.085.

Q: For CFKERTRSLLREWYLQDPYPNPSVKRELAQATGLTPTQVGNWFKNRRQRDR, which abundance fitness is on record?
A: The abundance fitness was -0.101 ± 0.053.

Q: With CFKERTRSLLREWYLQDPYPNPSLKRELAQATGLTPTQVGNWFKNRRQRDR as the variant, how does the abundance fitness read?
A: Its abundance fitness is -0.366 ± 0.084.

Q: Which abundance fitness does the source give for CFKERTRSLLREWYLQDPYPNPSEKRELAQATGLTPTQVGNWFKNRRQRDR here?
A: The abundance fitness was -0.364 ± 0.092.

Q: Which abundance fitness does the source give for CFKERTRSLLREWYLQDPYPNPSQKRELAQATGLTPTQVGNWFKNRRQRDR here?
A: Its abundance fitness is -0.112 ± 0.093.

Q: With CFKERTRSLLREWYLQDPYPNPSKCRELAQATGLTPTQVGNWFKNRRQRDR as the variant, how does the abundance fitness read?
A: The abundance fitness was -0.103 ± 0.097.

Q: With CFKERTRSLLREWYLQDPYPNPSKSRELAQATGLTPTQVGNWFKNRRQRDR as the variant, how does the abundance fitness read?
A: The abundance fitness was -0.478 ± 0.085.

Q: For CFKERTRSLLREWYLQDPYPNPSKTRELAQATGLTPTQVGNWFKNRRQRDR, which abundance fitness is on record?
A: The abundance fitness was 0.133 ± 0.062.

Q: Which abundance fitness does the source give for CFKERTRSLLREWYLQDPYPNPSKNRELAQATGLTPTQVGNWFKNRRQRDR here?
A: Its abundance fitness is -0.344 ± 0.25.

Q: Which abundance fitness does the source give for CFKERTRSLLREWYLQDPYPNPSKDRELAQATGLTPTQVGNWFKNRRQRDR here?
A: Its abundance fitness is -0.753 ± 0.062.

Q: For CFKERTRSLLREWYLQDPYPNPSKPRELAQATGLTPTQVGNWFKNRRQRDR, which abundance fitness is on record?
A: Its abundance fitness is -0.84 ± 0.067.

Q: With CFKERTRSLLREWYLQDPYPNPSKERELAQATGLTPTQVGNWFKNRRQRDR as the variant, how does the abundance fitness read?
A: Its abundance fitness is 0.008 ± 0.079.

Q: Which abundance fitness does the source give for CFKERTRSLLREWYLQDPYPNPSKARELAQATGLTPTQVGNWFKNRRQRDR here?
A: Its abundance fitness is -0.326 ± 0.057.

Q: With CFKERTRSLLREWYLQDPYPNPSKGRELAQATGLTPTQVGNWFKNRRQRDR as the variant, how does the abundance fitness read?
A: The abundance fitness was -0.579 ± 0.1.

Q: With CFKERTRSLLREWYLQDPYPNPSKVRELAQATGLTPTQVGNWFKNRRQRDR as the variant, how does the abundance fitness read?
A: Its abundance fitness is -0.019 ± 0.044.

Q: For CFKERTRSLLREWYLQDPYPNPSKQRELAQATGLTPTQVGNWFKNRRQRDR, which abundance fitness is on record?
A: The abundance fitness was -0.109 ± 0.11.

Q: Which abundance fitness does the source give for CFKERTRSLLREWYLQDPYPNPSKMRELAQATGLTPTQVGNWFKNRRQRDR here?
A: Its abundance fitness is 0.004 ± 0.09.

Q: With CFKERTRSLLREWYLQDPYPNPSKLRELAQATGLTPTQVGNWFKNRRQRDR as the variant, how does the abundance fitness read?
A: The abundance fitness was -0.061 ± 0.063.

Q: With CFKERTRSLLREWYLQDPYPNPSKYRELAQATGLTPTQVGNWFKNRRQRDR as the variant, how does the abundance fitness read?
A: The abundance fitness was -0.316 ± 0.1.

Q: With CFKERTRSLLREWYLQDPYPNPSKRRELAQATGLTPTQVGNWFKNRRQRDR as the variant, how does the abundance fitness read?
A: Its abundance fitness is -0.177 ± 0.063.

Q: With CFKERTRSLLREWYLQDPYPNPSKWRELAQATGLTPTQVGNWFKNRRQRDR as the variant, how does the abundance fitness read?
A: Its abundance fitness is -0.334 ± 0.056.

Q: Which abundance fitness does the source give for CFKERTRSLLREWYLQDPYPNPSKKRELCQATGLTPTQVGNWFKNRRQRDR here?
A: Its abundance fitness is -0.588 ± 0.24.

Q: For CFKERTRSLLREWYLQDPYPNPSKKRELMQATGLTPTQVGNWFKNRRQRDR, which abundance fitness is on record?
A: Its abundance fitness is -1.03 ± 0.19.

Q: For CFKERTRSLLREWYLQDPYPNPSKKRELHQATGLTPTQVGNWFKNRRQRDR, which abundance fitness is on record?
A: The abundance fitness was -0.777 ± 0.34.

Q: Which abundance fitness does the source give for CFKERTRSLLREWYLQDPYPNPSKKRELGQATGLTPTQVGNWFKNRRQRDR here?
A: The abundance fitness was -0.468 ± 0.065.

Q: Which abundance fitness does the source give for CFKERTRSLLREWYLQDPYPNPSKKRELKQATGLTPTQVGNWFKNRRQRDR here?
A: Its abundance fitness is -0.856 ± 0.24.

Q: For CFKERTRSLLREWYLQDPYPNPSKKRELDQATGLTPTQVGNWFKNRRQRDR, which abundance fitness is on record?
A: Its abundance fitness is -0.93 ± 0.41.

Q: For CFKERTRSLLREWYLQDPYPNPSKKRELLQATGLTPTQVGNWFKNRRQRDR, which abundance fitness is on record?
A: Its abundance fitness is -0.911 ± 0.18.

Q: For CFKERTRSLLREWYLQDPYPNPSKKRELEQATGLTPTQVGNWFKNRRQRDR, which abundance fitness is on record?
A: Its abundance fitness is -0.888 ± 0.16.

Q: For CFKERTRSLLREWYLQDPYPNPSKKREKAQATGLTPTQVGNWFKNRRQRDR, which abundance fitness is on record?
A: Its abundance fitness is -0.668 ± 0.095.

Q: Which abundance fitness does the source give for CFKERTRSLLREWYLQDPYPNPSKKRECAQATGLTPTQVGNWFKNRRQRDR here?
A: Its abundance fitness is -0.59 ± 0.045.

Q: With CFKERTRSLLREWYLQDPYPNPSKKREAAQATGLTPTQVGNWFKNRRQRDR as the variant, how does the abundance fitness read?
A: The abundance fitness was -1.05 ± 0.27.

Q: For CFKERTRSLLREWYLQDPYPNPSKKREQAQATGLTPTQVGNWFKNRRQRDR, which abundance fitness is on record?
A: The abundance fitness was -0.872 ± 0.11.

Q: For CFKERTRSLLREWYLQDPYPNPSKKREVAQATGLTPTQVGNWFKNRRQRDR, which abundance fitness is on record?
A: The abundance fitness was -0.147 ± 0.079.

Q: For CFKERTRSLLREWYLQDPYPNPSKKREMAQATGLTPTQVGNWFKNRRQRDR, which abundance fitness is on record?
A: Its abundance fitness is 0.029 ± 0.054.

Q: Which abundance fitness does the source give for CFKERTRSLLREWYLQDPYPNPSKKRETAQATGLTPTQVGNWFKNRRQRDR here?
A: Its abundance fitness is -0.876 ± 0.24.

Q: With CFKERTRSLLREWYLQDPYPNPSKKREIAQATGLTPTQVGNWFKNRRQRDR as the variant, how does the abundance fitness read?
A: Its abundance fitness is -0.162 ± 0.14.

Q: For CFKERTRSLLREWYLQDPYPNPSKKREWAQATGLTPTQVGNWFKNRRQRDR, which abundance fitness is on record?
A: The abundance fitness was -0.572 ± 0.056.

Q: Which abundance fitness does the source give for CFKERTRSLLREWYLQDPYPNPSKKREDAQATGLTPTQVGNWFKNRRQRDR here?
A: The abundance fitness was -0.805 ± 0.22.
